Assay results: US20190062425A1 (BETH ISRAEL DEACONESS MEDICAL CENTER, published 2019)

Target: T1, human transmembrane-4 L six family member-1 (TM4SF1), full-length (human, UniProt P30408 1-202, N-glycosylated at N129 and N159 (ECL2))
T1 construct: whole, on cells; Four-transmembrane plasma membrane glycoprotein; It was tested on cells (HUVEC, transduced HDF and HEMn), in tissue sections and on immunoblots; also called FL-TM4SF1; FL
T1 sequence (looked up): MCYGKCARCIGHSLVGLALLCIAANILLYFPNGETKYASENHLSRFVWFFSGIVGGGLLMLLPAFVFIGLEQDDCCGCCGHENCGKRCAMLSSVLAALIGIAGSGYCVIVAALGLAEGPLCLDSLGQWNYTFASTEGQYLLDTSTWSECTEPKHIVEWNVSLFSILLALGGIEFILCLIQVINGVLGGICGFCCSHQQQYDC
Test: method not stated

B1: 8G4 antibody (anti-TM4SF1 mouse monoclonal antibody produced by hybridoma mouse cell line 8G4-5-13-13F, PTA-120523) (antibody, V domains shown)
VH: EVILVESGGGLVKPGGSLKLSCAASGFTFSSFAMSWVRQTPEKRLEWVATISSGSIYIYYTDGVKGRFTISRDNAKNTVHLQMSSLRSEDTAMYYCARRGIYYGYDGYAMDYWGQGTSVTVSS
VL: AVVMTQTPLSLPVSLGDQASISCRSSQSLVHSNGNTYLHWYMQKPGQSPKVLIYKVSNRFSGVPDRFSGSGSGTDFTLKISRVEADDLGIYFCSQSTHIPLAFGAGTKLELK
notes: Mouse monoclonal antibody from a hybridoma; both have the length of variable domains; also called anti-TM4SF1 antibody 8G4
B1 gave a Kd of roughly 1 nM.
